Test [1] deals with Recombinant human FAP (R&D systems, #3715-SE) (human). Nature of the test: SPR (Biacore T200), rhFAP captured by anti-FAP antibody, single cycle kinetics; category A = pKD values >8.0. Background: In SPR one partner is held on a chip, and binding of the other changes the refractive index at the surface.
Test [2] deals with human fibroblast activation protein (FAP) on human WI-38 fibroblasts (human). Nature of the test: competitive FACS binding on FAP-expressing WI-38 cells against 3 nM Cy5-labeled compound; category A = pIC50 values >8.0. A general note: Flow cytometry measures light scatter and fluorescence of single cells or particles in a stream.

Chain of Recombinant human FAP (R&D systems, #3715-SE) (human) (chain, as listed by the source limits assumed): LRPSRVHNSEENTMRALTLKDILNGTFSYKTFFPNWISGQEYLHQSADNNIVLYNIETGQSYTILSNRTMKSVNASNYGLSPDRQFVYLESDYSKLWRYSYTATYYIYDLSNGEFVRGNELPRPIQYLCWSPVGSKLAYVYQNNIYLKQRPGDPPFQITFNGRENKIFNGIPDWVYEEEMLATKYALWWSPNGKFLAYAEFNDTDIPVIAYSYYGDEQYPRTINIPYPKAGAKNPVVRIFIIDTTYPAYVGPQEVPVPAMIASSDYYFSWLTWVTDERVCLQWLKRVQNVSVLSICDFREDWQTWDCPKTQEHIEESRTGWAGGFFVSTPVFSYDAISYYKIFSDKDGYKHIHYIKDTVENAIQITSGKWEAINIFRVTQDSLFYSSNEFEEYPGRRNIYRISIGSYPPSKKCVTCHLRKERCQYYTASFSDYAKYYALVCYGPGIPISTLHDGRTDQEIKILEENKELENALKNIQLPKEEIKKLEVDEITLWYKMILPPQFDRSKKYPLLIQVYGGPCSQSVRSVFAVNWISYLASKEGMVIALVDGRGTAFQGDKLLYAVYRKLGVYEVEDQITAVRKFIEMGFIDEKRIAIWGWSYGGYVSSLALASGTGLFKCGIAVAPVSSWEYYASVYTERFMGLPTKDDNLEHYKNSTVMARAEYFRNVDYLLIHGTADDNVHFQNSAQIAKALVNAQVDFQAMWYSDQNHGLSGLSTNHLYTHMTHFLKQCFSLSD

B1: Hex-[Cys(tMeBn(GaDOTA-PP))-Pro-Pro-Thr-Gln-Phe-Cys]-Asp-NH2 (3BP-3592) (peptide)
peptide: CPPTQFCD
modifications: N-terminal hexanoyl (Hex); Cys1 and Cys7 cyclised through tMeBn carrying GaDOTA-PP (gallium complex); C-terminal amide
B1: the “pKD Category” value in test [1] is above 8 pKD. The “pIC50 Category (FACS)” value in test [2] was above 8 pIC50.

B2: Hex-[Cys(tMeBn(InDOTA-AET))-Pro-Pro-Thr-Gln-Phe-Cys]-OH (3BP-3623) (peptide)
peptide: CPPTQFC
modifications: N-terminal hexanoyl (Hex); Cys1 and Cys7 cyclised through tMeBn carrying InDOTA-AET (indium complex); free C-terminal acid (-OH)
Take B2: the “pKD Category” value in test [1] was above 8 pKD.

B3: Hex-[Cys(tMeBn(InDOTA-PP))-Pro-Pro-Thr-Gln-Phe-Cys]-Asp-NH2 (3BP-3590) (peptide)
peptide: CPPTQFCD
modifications: N-terminal hexanoyl (Hex); Cys1 and Cys7 cyclised through tMeBn carrying InDOTA-PP (indium complex); C-terminal amide
B3: the “pKD Category” value in test [1] is above 8 pKD. The “pIC50 Category (FACS)” value in test [2] is above 8 pIC50.

B4: Hex-[Cys(tMeBn(GaDOTA-AET))-Pro-Pro-Thr-Gln-Phe-Cys]-OH (3BP-3949) (peptide)
peptide: CPPTQFC
modifications: N-terminal hexanoyl (Hex); Cys1 and Cys7 cyclised through tMeBn carrying GaDOTA-AET (gallium complex); free C-terminal acid (-OH)
B4: in test [1], the “pKD Category” value is above 8 pKD.

B5: Hex-[Cys(tMeBn(LuDOTA-PP))-Pro-Pro-Thr-Gln-Phe-Cys]-Asp-NH2 (3BP-3591) (peptide)
peptide: CPPTQFCD
modifications: N-terminal hexanoyl (Hex); Cys1 and Cys7 cyclised through tMeBn carrying LuDOTA-PP (lutetium complex); C-terminal amide
Take B5: in test [1], the “pKD Category” value is above 8 pKD. Moreover, the “pIC50 Category (FACS)” value in test [2] was above 8 pIC50.

B6: Hex-[Cys(tMeBn(DOTA-AET))-Pro-Pro-Thr-Gln-Phe-Cys]-OH (3BP-3554) (peptide)
peptide: CPPTQFC
modifications: N-terminal hexanoyl (Hex); Cys1 and Cys7 cyclised through tMeBn carrying DOTA-AET; free C-terminal acid (-OH)
Turning to B6, the “pKD Category” value in test [1] was above 8 pKD.

B7: Hex-[Cys(tMeBn(EuDOTA-PP))-Pro-Pro-Thr-Gln-Phe-Cys]-Asp-NH2 (3BP-3661) (peptide)
peptide: CPPTQFCD
modifications: N-terminal hexanoyl (Hex); Cys1 and Cys7 cyclised through tMeBn carrying EuDOTA-PP (europium complex); C-terminal amide
On to B7, for which the “pIC50 Category (FACS)” value in test [2] is above 8 pIC50.

B8: Hex-[Cys(tMeBn(LuDOTA-AET))-Pro-Pro-Thr-Gln-Phe-Cys]-OH (3BP-3624) (peptide)
peptide: CPPTQFC
modifications: N-terminal hexanoyl (Hex); Cys1 and Cys7 cyclised through tMeBn carrying LuDOTA-AET (lutetium complex); free C-terminal acid (-OH)
Consider B8, for which the “pKD Category” value in test [1] was above 8 pKD.

B9: Hex-[Cys(tMeBn(DOTA-PP))-Pro-Pro-Thr-Gln-Phe-Cys]-Asp-NH2 (3BP-3407) (peptide)
peptide: CPPTQFCD
modifications: N-terminal hexanoyl (Hex); Cys1 and Cys7 cyclised through tMeBn carrying DOTA-PP; C-terminal amide
In the case of B9, the “pKD Category” value in test [1] was above 8 pKD. In addition, the “pIC50 Category (FACS)” value in test [2] was above 8 pIC50.

Source of the values: US12427210B2 (3B PHARMACEUTICALS GMBH, dated 2025).
